From patent US20120220029, “MUTANT SOX PROTEINS AND METHODS OF INDUCING PLURIPOTENCY” (Agency for Science, Technology and Research, published 2012)

Assays:
Test in all cases: EMSA
[1] = molecular target: T1, Sox2HMGs (core HMG)/Oct4POU (Mus musculus, UniProt P48432;P20263 P48432:43-111,P20263:126-289); details: label: 5'-Cy5
Method: (§1) Electrophoretic mobility shift assays: All EMSAs were carried out using double-stranded 5′ Cy5-labeled DNA (Sigma Proligo, see Table 1) (Jauch, R., et al. J. Mol. Biol. (2008) 376(3):758-70). Binding buffer contains 20 mM Tris-HC1 pH 8.0, 50 μM ZnCl₂, 100 mM KCl, 10% glycerol, 2 mM 13-merceptoethanol, 0.1 mg/ml bovine serum albumin (BSA) and 0.1% (v/v) Igepal CA-630. 250nM dsDNA probes were mixed with analyte proteins singly or in combinations in binding buffer and incubated for 1 hr at 4° C. in dark. Samples were loaded into a pre-run 12% (w/v) IX Tris-glycine polyacrylamide gel in 1XTG (25 mM Tris, pH 8.3; 192 mM glycine) buffer to separate different species of bound and unbound probes. The fluorescence was detected using a Typhoon 9140 PhosphorImager (Amersham Biosciences).
(§2) FIG. 1: EMSAs to assess Sox7, Sox2HMGs and spacer nucleotides. To exclude artifacts that could have been caused by the length difference between the Sox2/Sox17 constructs, the differential assembly of the core Sox2HMG domain (termed Sox2HMGs) was tested. The domain spans the same range of amino acids of the Sox17 construct. The differential assembly of Sox7, another F group Sox protein with strong sequence similarities to Sox17 was also tested. Sox7 and Sox17 had comparably weak Oct4 heterodimerization on canonical elements whereas cooperative binding was observed on the compressed element. Thirdly, the spacer nucleotide of the canonical element on the remaining three possible nucleotides was varied (CATTGT(C/A/T/G)ATGCAAAT). The identity of the spacer nucleotide was found not to have a pronounced impact on the overall dimerization profile of the various Sox protein with Oct4. 50nM of Sox2HMGs, Sox7HMG and Sox17HMG were incubated with canonical elements containing different basebairs at position 7 of the Sox motif (C₁A₂T₃T₄G₅T₆(A/T/C/G)₇; A-D) and on the compressed element (E) in the absence (Lanes 1-3) or presence (Lanes 4-6) of 250 nM Oct4POU.

[2] = molecular target: T2, Oct4 POU domain (Mus musculus, UniProt P20263 P20263:126-289); details: tags: N-terminal MBP tag removed by TEV protease; label: 5'-Cy5
T2 sequence (P20263 126-289, one chain of several): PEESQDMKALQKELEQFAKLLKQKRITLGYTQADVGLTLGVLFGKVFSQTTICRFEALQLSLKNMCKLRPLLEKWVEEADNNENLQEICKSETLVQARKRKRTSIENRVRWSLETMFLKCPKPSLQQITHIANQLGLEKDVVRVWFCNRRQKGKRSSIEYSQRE

[3] = molecular target: Sox17HMG (Mus musculus, UniProt Q61473 SEQ:68-136); details: label: 5'-Cy5
Chain of Sox17HMG (Q61473 68-136): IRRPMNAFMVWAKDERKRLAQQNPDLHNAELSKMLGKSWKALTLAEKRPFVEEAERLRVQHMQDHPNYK

[4] = molecular target: T3, Sox2HMG1/Oct4POU (Mus musculus, UniProt P48432;P20263 P48432:33-141,P20263:126-289); details: label: 5'-Cy5
T3 sequence (P48432 33-141, chain 1 of 2): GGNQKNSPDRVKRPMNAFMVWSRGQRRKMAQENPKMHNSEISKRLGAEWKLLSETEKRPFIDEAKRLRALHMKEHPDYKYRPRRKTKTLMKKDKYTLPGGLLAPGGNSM
T3 sequence (P20263 126-289, chain 2 of 2): as the sequence (P20263 126-289, one chain of several) above
Method: as §1
(§3) FIG. 8: Differential assembly of Sox2HMG and Oct4POU (A) and Sox17HMG and Oct4 (E) on a series of different motif configurations. Motif configurations were systematically designed as outlined in FIG. 1A using 30bp DNA elements containing identical Sox (CATTGTC) and Oct4 (ATGCAAAT) consensus sequences flanked by GC rich sequences. To minimize binding anomalies due to cryptic elements at the periphery or within the spacer region we used idealized motifs (CATTGTC for sox and ATGCAAAT for oct) and introduced G's and C's as spacer and boundary nucleotides. Each DNA element was mixed with individual transcription factor proteins as well as with both Sox2 and Oct4 DBDs in combination (See supplementary information). 250 nM of every cy5-labelled DNA element was incubated with 50 nM Sox2HMG1/Sox17HMG and 250 nM Oct4POU proteins alone and in combination followed by PAGE to assess the formation of ternary Sox/Oct4/DNA complex. The position of the various protein DNA complexes are marked by arrows. The number of spacer basepairs is indicated above and below the gels. X=-1 denotes the compressed and X=0 the canonical elements. The co-occurrence of canonical and compressed motifs within genomic regions co-bound by Sox2 and Oct4 in mouse embryonic stem cells are depicted in (B). […]

[5] = molecular target: T2, Oct4 POU domain; details: tags: N-terminal MBP tag removed by TEV protease; label: 5'-Cy5; remark: listed apart in the source
Method: as §1
(§4) FIG. 9: (A) Differential assembly of Sox2/Oct4 and Sox17/Oct4 on the compressed and canonical elements. Proteins were added to 250nM DNA elements in the sequences indicated above the lanes. To distinguish shifts caused by Sox2 and Sox17 a N and C-terminally extended Sox2-HMG (Sox2HMG1) domain was used in these experiments. As a consequence, both, the Sox2/DNA and the Sox2/Oct4/DNA complex, migrate slower than the corresponding Sox17 complexes, allowing us to visualize a Sox2/Oct4 and Sox17/Oct4 DNA complex on the same gel. […]

[6] = molecular target: Sox2HMG1 (extended HMG domain) (Mus musculus, UniProt P48432 SEQ:33-141); details: label: 5'-Cy5
Chain of Sox2HMG1 (extended HMG domain) (P48432 33-141): as the sequence (P48432 33-141, chain 1 of 2) above
Method: as §1, §4

[7] = molecular target: Sox7HMG/Oct4POU (Mus musculus, UniProt P40646;P20263 P40646:45-113,P20263:126-289); details: label: 5'-Cy5
Chain of Sox7HMG/Oct4POU (P40646 45-113, chain 1 of 2): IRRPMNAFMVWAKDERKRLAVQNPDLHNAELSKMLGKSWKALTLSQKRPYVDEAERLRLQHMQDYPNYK
Chain of Sox7HMG/Oct4POU (P20263 126-289, chain 2 of 2): as the sequence (P20263 126-289, one chain of several) above
Method: as §1, §2

[8] = molecular target: T4, Sox17HMG/Oct4POU (Mus musculus, UniProt Q61473;P20263 Q61473:68-136,P20263:126-289); details: label: 5'-Cy5
T4 sequence (Q61473 68-136, chain 1 of 2): as the sequence (Q61473 68-136) above
T4 sequence (P20263 126-289, chain 2 of 2): as the sequence (P20263 126-289, one chain of several) above
Method: as §1, §3

[9] = molecular target: Sox2KE HMG/Oct4POU (Mus musculus, UniProt P48432;P20263 P48432:43-111,P20263:126-289, Sox2 K95E); details: label: 5'-Cy5
Chain of Sox2KE HMG/Oct4POU (P48432 43-111, stated change not applied, chain 1 of 2): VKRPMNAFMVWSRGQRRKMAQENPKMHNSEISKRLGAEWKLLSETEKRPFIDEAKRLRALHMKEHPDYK
Chain of Sox2KE HMG/Oct4POU (P20263 126-289, stated change not applied, chain 2 of 2): as the sequence (P20263 126-289, one chain of several) above
Method: (§5) 250nM dsDNA probes were mixed with analyte proteins singly or in combinations in binding buffer and incubated for 1 hr at 4° C. in dark. Samples were loaded into a pre-run 12% (w/v) IX Tris-glycine polyacrylamide gel in 1XTG (25 mM Tris, pH 8.3; 192 mM glycine) buffer to separate different species of bound and unbound probes. The fluorescence was detected using a Typhoon 9140 PhosphorImager (Amersham Biosciences).
(§6) FIG. 10: (A) Alignment of the amino acid sequence of all mouse Sox proteins. The Sox subfamilies (Bowles, J. et al., Dev. Biol. (2000) 227: 239-55) are indicated to the right. The numbering corresponds to the Sox17 sequence. Alpha helices are marked with a red bar. The FM wedge is indicated with an orange bar below the alignment and further DNA interacting residues are marked by black closed circles. Highly conserved and similar sequences are shaded in black or gray. The position of glutamate and lysine residues distinguishing Sox17 and Sox2 is marked by an arrow. The eight amino acids in helix 3 of Sox2 that were replaced by their corresponding counterparts found in Sox17 to construct the Sox2″¹⁷ protein are colored red. (B) structural model prepared using pymol by using the structural coordinates for Sox17 and the Sox2/Oct1 on DNA. The van-der-Waals surface of the DNA derived from the Sox2/Oct1 structure is shown in light gray. Sox17 (blue) was superimposed onto Sox2 (gray). Oct1 is shown in black. Note that the linker region connecting the POU specific and the POU homedomain is not present in the NMR derived model due to structural disorder. The glutamate (Sox17) and the lysine (Sox2) that were mutated are shown as ball-and-sticks. Note that the lysine exists in two alternative conformations in the NMR model. (C)Point mutations at the Sox/Oct4 interface swap the differential assembly behavior of Sox2 and Sox17 on the canonical versus the compressed element DNA element derived from a functional sox/oct element within the Nanog enhancer were used (Rodda, D. J. et al. J Biol Chem (2005) 280:24731-7). 2 denotes Sox2HMGs, 17: Sox17HMG, 2KE: Sox2KE, 17EK: Sox17EK and 2α17 the replacement of all Sox2 residues in helix 3 that differ from the corresponding Sox17 residues into their Sox17 counterpart. Sox proteins were incubated with DNA individually and in combination with Oct4.

[10] = molecular target: T4, Sox17HMG/Oct4POU; details: label: 5'-Cy5; remark: listed apart in the source
Method: as §5, §6

[11] = molecular target: Sox17EK HMG/Oct4POU (Mus musculus, UniProt Q61473;P20263 Q61473:68-136,P20263:126-289, Sox17 E122K); details: label: 5'-Cy5
Chain of Sox17EK HMG/Oct4POU (Q61473 68-136 E122K, chain 1 of 2): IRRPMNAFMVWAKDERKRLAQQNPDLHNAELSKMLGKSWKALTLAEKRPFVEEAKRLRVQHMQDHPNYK
Chain of Sox17EK HMG/Oct4POU (P20263 126-289, stated change not applied, chain 2 of 2): as the sequence (P20263 126-289, one chain of several) above
Method: as §5, §6

[12] = molecular target: T3, Sox2HMG1/Oct4POU; details: label: 5'-Cy5; remark: listed apart in the source
Method: as §1
Profiling of Sox/Oct4 Binding to Differentially Configured Motifs: To assess the preference of Sox2 and Oct4 to physically assemble on differentially configured sox/oct motifs in vitro, electrophoretic mobility shift assays (EMSA) were conducted using purified DNA binding domains (DBDs) of Sox2 and Oct4. The heterodimerization potential of Sox2/Oct4 DBD pairs was screened on a panel of systematically modified sox/oct composite motifs (FIG. 7A). A strong cooperative interaction of Sox2 and Oct4 on the canonical element was observed (x=0, FIG. 8A, lanes 5-7). […]

[13] = molecular target: T1, Sox2HMGs (core HMG)/Oct4POU; details: label: 5'-Cy5; remark: listed apart in the source
Method: as §5, §6

T1 sequence (P48432 43-111, chain 1 of 2): as the sequence (P48432 43-111, stated change not applied, chain 1 of 2) above
T1 sequence (P20263 126-289, chain 2 of 2): as the sequence (P20263 126-289, one chain of several) above

B1: canonical sox/oct (0) (dsDNA)
DNA 1: GGCGCGGCATTGTCATGCAAATCGGCGGCG
DNA 2: CGCCGCCGATTTGCATGACAATGCCGCGCC
[1]
  binding result: binds
[2]
  binding result: binds
[3]
  binding result: binds
[4]
  binding result: binds

B2: compressed sox/oct (-1) (dsDNA)
DNA 1: CGGCGCGGCATTGTATGCAAATCGGCGGCG
DNA 2: CGCCGCCGATTTGCATACAATGCCGCGCCG
[5]
  binding result: binds
[6]
  binding result: binds
[1]
  binding result: no binding
[7]
  binding result: binds
[3]
  binding result: binds
[8]
  binding result: binds
[4]
  binding result: no binding

B3: Nanog' compressed (-1) (dsDNA)
DNA 1: CTGGACATTGTATGCAAAAGAA
DNA 2: TTCTTTTGCATACAATGTCCAG
[9]
  binding result: binds
[10]
  binding result: binds
[11]
  binding result: no binding

B4: order (dsDNA)
DNA 1: GGCGCGGATGCAAATCATTGTCCGGCGGCG
DNA 2: CGCCGCCGGACAATGATTTGCATCCGCGCC
[12]
  binding result: no binding

B5: Nanog canonical (dsDNA)
DNA 1: CATGGACATTGTAATGCAAAAGAAGCTG
DNA 2: CAGCTTCTTTTGCATTACAATGTCCATG
[11]
  binding result: binds
[13]
  binding result: binds
